Measured values from the supplement of paper PMC10724198.
± gives the standard deviation of the averaged measurements.

Test system: Saccharomyces cerevisiae
Experiment: protein stability index of tFT-peptide fusion (C-terminal peptide) (PSI (0-1 scale)); higher = more stable (slower turnover)
Conditions: genetic background: wild type; temperature: 30 C
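Also: PSI is a weighted mean of sequencing reads over stability bins, variants kept only with over 10 reads, mCherry proximal and sfGFP distal, peptide attached via GGGS linker.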

Row | Sequence | protein stability index
1 | PSLPPAYPSIAI | 0.737 ± 0.067
2 | PSLSDPLAPPQG | 0.757 ± 0.089
3 | PSLSPYPLQPRY | 0.751 ± 0.034
4 | PSLTLPPSPRFP | 0.7585 ± 0.0029
5 | PSNSRPRASPAC | 0.67 ± 0.039
6 | PSPAPSGPAHHP | 0.667 ± 0.05
7 | PSPLALRTPSFS | 0.692 ± 0.02
8 | PSPLPMYPPPTF | 0.693 ± 0.0083
9 | PSPLPVSAPLLP | 0.701 ± 0.039
10 | PSPLTPAAPFPL | 0.674 ± 0.056
11 | PSPPAPPPETSP | 0.713 ± 0.031
12 | PSPPASTPLPPP | 0.684 ± 0.024
13 | PSPPCPPTDPPA | 0.624 ± 0.011
14 | PSPPFLPPPVPL | 0.685 ± 0.056
15 | PSPPHLHLHLAP | 0.665 ± 0.013
16 | PSPPHPPPPLFP | 0.706 ± 0.02
17 | PSPPLCPPRFSP | 0.652 ± 0.025
18 | PSPPLPPLPPSP | 0.575 ± 0.053
19 | PSPPPAPLHSPL | 0.704 ± 0.058
20 | PSPPPAPPPQPS | 0.678 ± 0.052
21 | PSPPPLPSPPSL | 0.738 ± 0.087
22 | PSPPPTPPPFLP | 0.71 ± 0.054
23 | PSPPRKHAPFRP | 0.737 ± 0.0085
24 | PSPRPSPPLPSP | 0.647 ± 0.076
25 | PSPSPLPASFRL | 0.683 ± 0.11
26 | PSPSPPPCPYPP | 0.677 ± 0.054

Row | Sequence | protein stability index
27 | PSPSSPLPPPPP | 0.794 ± 0.035
28 | PSPTPSPPFPAP | 0.721 ± 0.038
29 | PSPTRLPPPSPH | 0.757 ± 0.008
30 | PSPYFPVPLLPS | 0.701 ± 0.028
31 | PSQKRITDPRET | 0.683 ± 0.047
32 | PSRDGNLYAQCR | 0.618 ± 0.048
33 | PSRPTLLTPLSP | 0.695 ± 0.045
34 | PSRRFLPEKRSL | 0.678 ± 0.0039
35 | PSRRPPLPLPRP | 0.714 ± 0.013
36 | PSRRPPPPPFLP | 0.7 ± 0.036
37 | PSRTSPLSHIPF | 0.676 ± 0.023
38 | PSSFPDPFSPSL | 0.735 ± 0.037
39 | PSSHPLLPPPPP | 0.67 ± 0.06
40 | PSSPHTAIRHPL | 0.671 ± 0.02
41 | PSSPIFPFSSLP | 0.599 ± 0.15
42 | PSSPTYVPPSFL | 0.6754 ± 0.0022
43 | PSSSSWPPPRHP | 0.831 ± 0.18
44 | PSSSYLSCLPSW | 0.703 ± 0.083
45 | PSSTSPQPRLCF | 0.686 ± 0.027
46 | PSTPPPRLHPSS | 0.642 ± 0.032
47 | PSVPSAAPPSSA | 0.703 ± 0.02
48 | PSVRQSSPRFLH | 0.667 ± 0.067
49 | PSYSPPPHPVHR | 0.686 ± 0.05
50 | PTFRLGGYYRKS | 0.703 ± 0.055
51 | PTGLTNPPPCPQ | 0.716 ± 0.11
52 | PTHGPSPPNVAT | 0.6595 ± 0.00038

Row | Sequence | protein stability index
53 | PTIKPSPRFPLS | 0.71 ± 0.021
54 | PTKLFDTRPRGA | 0.679 ± 0.05
55 | PTLLRRPLPNLG | 0.73 ± 0.02
56 | PTLPPPPRPPAP | 0.657 ± 0.016
57 | PTLPTPAARPGR | 0.696 ± 0.016
58 | PTLSPPSPPPPA | 0.665 ± 0.035
59 | PTPGRSPKRLPE | 0.752 ± 0.026
60 | PTPLPHTRATPT | 0.778 ± 0.015
61 | PTPNPGHTRACL | 0.763 ± 0.23
62 | PTPPCPLVPPRP | 0.72 ± 0.074
63 | PTPPTPTISPTP | 0.651 ± 0.0052
64 | PTQFSSAADLSA | 0.637 ± 0.062
65 | PTRERPSDQPYP | 0.701 ± 0.04
66 | PTRGLTARPFLW | 0.62 ± 0.042
67 | PTRQKRPPYRIK | 0.711 ± 0.031
68 | PTRRPDLFYYSS | 0.74 ± 0.017
69 | PTRSPPPAAIAS | 0.697 ± 0.14
70 | PTSLLPLRLLNS | 0.61185 ± 0.00055
71 | PTSLPPLSRPPP | 0.723 ± 0.029
72 | PTSPLVFFFVPL | 0.624 ± 0.037
73 | PTSQRPFFLISP | 0.704 ± 0.015
74 | PTTTPHPHIATP | 0.711 ± 0.14
75 | PTVFMNIQKQNI | 0.678 ± 0.042
76 | PTVNIDSQSRSP | 0.692 ± 0.079
77 | PVASFLACSIAG | 0.602 ± 0.032
78 | PVCELCLITLRG | 0.59 ± 0.053

Row | Sequence | protein stability index
79 | PVDDFVCLEVDS | 0.688 ± 0.061
80 | PVFPSFGVSEFV | 0.753 ± 0.059
81 | PVFTLLPTCYCA | 0.6073 ± 0.0025
82 | PVGDDDRTIPRL | 0.661 ± 0.043
83 | PVGEEPRPRNVR | 0.674 ± 0.063
84 | PVGWVEASLSPG | 0.721 ± 0.027
85 | PVLFSPPSPFFP | 0.708 ± 0.083
86 | PVLGRTLAFRSL | 0.659 ± 0.057
87 | PVLHSPHSLPPR | 0.734 ± 0.11
88 | PVLLPPCCLAIV | 0.548 ± 0.026
89 | PVLRPPTPPRFR | 0.661 ± 0.028
90 | PVPKAPPCNRRR | 0.663 ± 0.0099
91 | PVPLRPLSPPPP | 0.68 ± 0.0099
92 | PVPPPLSPLPTP | 0.703 ± 0.11
93 | PVPPRLPLPAPL | 0.757 ± 0.051
94 | PVSPPLPTPPPP | 0.616 ± 0.056
95 | PVSVCADRPPAP | 0.715 ± 0.063
96 | PVVFAGLLLHGH | 0.694 ± 0.042
97 | PWGGLGTGWGRR | 0.75 ± 0.035
98 | PWGSGSDRAGRG | 0.746 ± 0.062
99 | PWVLSLASGSPS | 0.687 ± 0.026
100 | PYAPYRPQVDSS | 0.708 ± 0.018
101 | PYFQASLSCLPS | 0.744 ± 0.036
